Experimental data as given in patent US11278600B2, “Human alpha-galactosidase variants” (Codexis, Inc., priority 2014, dated 2022).

B1: 1 (protein)
chain: LDNGLARTPTMGWLHWERFMCNLDCQEEPDSCISEKLFMEMAELMVSEGWKDAGYEYLCIDDCWMAPQRDSEGRLQADPQRFPHGIRQLANYVHSKGLKLGIYADVGNKTCAGFPGSFGYYDIDAQTFADWGVDLLKFDGCYCDSLENLADGYKHMSLALNRTGRSIVYSCEWPLYMWPFQKPNYTEIRQYCNHWRNFADIDDSWKSIKSILDWTSFNQERIVDVAGPGGWNDPDMLVIGNFGLSWNQQVTQMALWAIMAAPLFMSNDLRHISPQAKALLQDKDVIAINQDPLGKQGYQLRQGDNFEVWERPLSGLAWAVAMINRQEIGGPRSYTISVASLGKGVACNPACFITQLLPVKRKLGFYEWTSRLRSHINPTGTVLLQLENTMQMSLKDLL
modifications: Synthetic Polypeptide sequence of Variant No. 1 of mature Human GLA
B2: 2 (protein)
chain: LDNGLARTPTMGWLHWERFMCNLDCQEEPDSCISEKLFMEMADLMVSEGWKDAGYEYLCIDDCWMAPQRDSEGRLQADPQRFPHGIRQLANYVHSKGLKLGIYADVGNKTCAGFPGSFGYYDIDAQTFADWGVDLLKFDGCYCDSLENLADGYKHMSLALNRTGRSIVYSCEWPLYMWPFQKPNYTEIRQYCNHWRNFADIDDSWKSIKSILDWTSFNQERIVDVAGPGGWNDPDMLVIGNFGLSWNQQVTQMALWAIMAAPLFMSNDLRHISPQAKALLQDKDVIAINQDPLGKQGYQLRQGDNFEVWERPLSGLAWAVAMINRQEIGGPRSYTIAVASLGKGVACNPACFITQLLPVKRKLGFYEWTSRLRSHINPTGTVLLQLENTMQMSLKDLL
modifications: Synthetic Polypeptide sequence of Variant No. 2 of mature Human GLA
B3: 125 (protein)
chain: LDNGLARTPTMGWLHWERFMCNLDCQEEPDSCISEKLFMEMAELMVSEGWKDAGYEYLCIDDCWMAPQRDSEGRLQADPQRFPHGIRQLANYVHSKGLKLGIYADVGNKTCAGFPGSFGYYDIDAQTFADWGVDLLKFDGCYCDSLENLADGYKHMSLALNRTGRSIVYSCEWPLYMWPFQKPNYTEIRQYCNHWRNFADIDDSWKSIKSILDWTSFNQERIVDVAGPGGWNDPDMLVIGNFGLSWNQQVTQMALWAIMAAPLFMSNDLRHISPQAKALLQDKDVIAINQDPLGKQGYQLRQGDNFEVWERPLSGLAWAVAIINRQEIGGPRSYTIAVASLGKGVACNPACFITQLLPVKRKLGFYEWTSRLRSHINPTGTVLLQLENTMQMSKDLLL
modifications: Synthetic Polypeptide sequence of Variant No. 125 of mature Human GLA
B4: 124 (protein)
chain: LDNGLARTPTMGWLHWERFMCNLDCQEEPDSCISEKLFMEMAELMVSEGWKDAGYEYLCIDDCWMAPQRDSEGRLQADPQRFPHGIRQLANYVHSKGLKLGIYADVGNKTCAGFPGSFGYYDIDAQTFADWGVDLLKFDGCYCDSLENLADGYKHMSLALNRTGRSIVYSCEWPLYMWPFQKPNYTEIRQYCNHWRNFADIDDSWKSIKSILDWTSFNQERIVDVAGPGGWNDPDMLVIGNFGLSWNQQVTQFALWAIMAAPLFMSNDLRHISPQAKALLQDKDVIAINQDPLGKQGYQLRQGDNFEVWERPLSGLAWAVAMINRQEIGGPRSYTIAVASLGKGVACNPACFITQLLPVKRKLGFYEWTSRLRSHINPTGTVLLQLENTMQMSKDLLL
modifications: Synthetic Polypeptide sequence of Variant No. 124 of mature Human GLA
B5: 126 (protein)
chain: LDNGLARTPTMGWLHWERFMCNLDCQEEPDSCISEKLFMEMAELMVSEGWKDAGYEYLCIDDCWMAPQRDSEGRLQADPQRFPHGIRQLANYVHSKGLKLGIYADVGNKTCAGFPGSFGYYDIDAQTFADWGVDLLKFDGCYCDSLENLADGYKHMSLALNRTGRSIVYSCEWPLYMWPFQKPNYTEIRQYCNHWRNFADIDDSWKSIKSILDWTSFNQERIVDVAGPGGWNDPDMLVIGNFGLSWNQQVTQMALWAIMAAPLFMSNDLRHISPQAKALLQDKDVIAINQDPLGKQGYQLRQGDNFEVWERPLSGLAWAVAMINRQEIGGPRSYTIAVASLGKGVACNPACFITQLLPVKRKLGFYEWTSRLRSHINPTGTVLLQLENTDQMSKDLLL
modifications: Synthetic Polypeptide sequence of Variant No. 126 of mature Human GLA
B6: 128 (protein)
chain: LDNGLARTPTMGWLHWERFMCNLDCQEEPDSCISEKLFMEMAELMVSEGWKDAGYEYLCIDDCWMAPQRDSEGRLQADPQRFPHGIRQLANYVHSKGLKLGIYADVGNKTCAGFPGSFGYYDIDAQTFADWGVDLLKFDGCYCDSLENLADGYKHMSLALNRTGRSIVYSCEWPLYMWPFQKPNYTEIRQYCNHWRNFADIDDSWKSIKSILDWTSFNQERIVDVAGPGGWNDPDMLVIGNFGLSWNQQVTQMALWAIMAAPLFMSNDLRHISPQAKALLQDKDVIAINQDPLGKQGYQLRQGDNFEVWERPLSGLAWAVAMINRQEIGGPRSYTIAVASLGKGVACNPACFITQLLPVKRKLGFYEWTSRLRSHINPTGTVLLQLENTTQMSKDLLL
modifications: Synthetic Polypeptide sequence of Variant No. 128 of mature Human GLA
B7: 123 (protein)
chain: LDNGLARTPTMGWLHWERFDCNLDCQEEPDSCISEKLFMEMAELMVSEGWKDAGYEYLCIDDCWMAPQRDSEGRLQADPQRFPHGIRQLANYVHSKGLKLGIYADVGNKTCAGFPGSFGYYDIDAQTFADWGVDLLKFDGCYCDSLENLADGYKHMSLALNRTGRSIVYSCEWPLYMWPFQKPNYTEIRQYCNHWRNFADIDDSWKSIKSILDWTSFNQERIVDVAGPGGWNDPDMLVIGNFGLSWNQQVTQMALWAIMAAPLFMSNDLRHISPQAKALLQDKDVIAINQDPLGKQGYQLRKGDNFEVWERPLSGLAWAVAMINRQEIGGPRSYTIAVASLGKGVACNPACFITQLLPVKRKLGFYEWTSRLRSHINPTGTVLLQLENTMQMSKDLLL
modifications: Synthetic Polypeptide sequence of Variant No. 123 of mature Human GLA
B8: 127 (protein)
chain: LDNGLARTPTMGWLHWERFMCNLDCQEEPDSCISEKLFMEMAELMVSEGWKDAGYEYLCIDDCWMAPQRDSEGRLQADPQRFPHGIRQLANYVHSKGLKLGIYADVGNKTCAGFPGSFGYYDIDAQTFADWGVDLLKFDGCYCDSLENLADGYKHMSLALNRTGRSIVYSCEWPLYMWPFQKPNYTEIRQYCNHWRNFADIDDSWKSIKSILDWTSFNQERIVDVAGPGGWNDPDMLVIGNFGLSWNQQVTQMALWAIMAAPLFMSNDLRHISPQAKALLQDKDVIAINQDPLGKQGYQLRQGDNFEVWERPLSGLAWAVAMINRQEIGGPRSYTIAVASLGKGVACNPACFITQLLPVKRKLGFYEWTSRLRSHINPTGTVLLQLENTRQMSKDLLL
modifications: Synthetic Polypeptide sequence of Variant No. 127 of mature Human GLA

What was measured:
Format in all cases: biochemical
Conditions in all cases: activity of the variant/activity of WT GLA (SEQ ID NO: 5), yeast supernatant
[1] = HTP-analysis of supernatants pretreated with base (MUGal hydrolysis)
Procedure, shortened: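 Fluorescence of released 4-MU (Ex 355 nm, Em 448 nm) after carbonate quench reports MUGal hydrolysis by GLA variants secreted from INVSc1 yeast. Before the acidic (pH 4.3-4.8) 30-180 min reaction at 37° C, supernatants had been pre-incubated at pH 7.0-9.7 for 1-18 h at 37° C.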

[2] = HTP-analysis of yeast culture supernatants, no challenge (MUGal hydrolysis)
Procedure, shortened: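 GLA variants expressed in yeast INVSc1, secreted into SD-Ura broth over 66-84 h at 30° C; clarified supernatants tested without challenge. Supernatant mixed with McIlvaine buffer pH 4.8 and 2 mM MUGal (citrate/KCl, pH 4.6), 37° C for 30-180 min, carbonate-quenched, fluorescence Ex 355/Em 448 nm.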

[3] = HTP-analysis of supernatants pretreated with acid (MUGal hydrolysis)
Procedure, shortened: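 MUGal hydrolysis was tracked by fluorescence (Ex 355 nm, Em 448 nm) after a 30-180 min reaction at 37° C. in pH 4.8 McIlvaine/citrate buffer, stopped with 1 M sodium carbonate. Beforehand, yeast (INVSc1) culture supernatants carrying GLA variants were held 1-3 h at 37° C. in acidic McIlvaine buffer, pH 3.3-4.3.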

| Molecule | Relative Activity of GLA Variants After Challenge at pH 7.0 [1] | Relative Activity of GLA Variants After No Challenge (NC) [2] | Relative Activity of GLA Variants After Challenge at pH 4.3 [3] | Relative Activity of GLA Variants After Challenge at pH 7.1 [1] | Relative Activity of GLA Variants After Challenge at pH 4.2 [3] |
| --- | --- | --- | --- | --- | --- |
| B1 | + (+ = 0.5 to 1.5 relative activity over WT GLA (SEQ ID NO: 5)) | + (+ = 0.5 to 1.5 relative activity over WT GLA (SEQ ID NO: 5)) | + (+ = 0.5 to 1.5 relative activity over WT GLA (SEQ ID NO: 5)) | – | – |
| B2 | + (+ = 0.5 to 1.5 relative activity over WT GLA (SEQ ID NO: 5)) | + (+ = 0.5 to 1.5 relative activity over WT GLA (SEQ ID NO: 5)) | + (+ = 0.5 to 1.5 relative activity over WT GLA (SEQ ID NO: 5)) | – | – |
| B3 | – | + (+ = 0.5 to 1.5 relative activity over WT GLA (SEQ ID NO: 5)) | – | + (+ = 0.5 to 1.5 relative activity over WT GLA (SEQ ID NO: 5)) | + (+ = 0.5 to 1.5 relative activity over WT GLA (SEQ ID NO: 5)) |
| B4 | – | ++ (++ = >1.5 to 2.5 relative activity over WT GLA (SEQ ID NO: 5)) | – | + (+ = 0.5 to 1.5 relative activity over WT GLA (SEQ ID NO: 5)) | ++ (++ = >1.5 to 2.5 relative activity over WT GLA (SEQ ID NO: 5)) |
| B5 | – | +++ (+++ = >2.5 relative activity over WT GLA (SEQ ID NO: 5)) | – | +++ (+++ = >2.5 relative activity over WT GLA (SEQ ID NO: 5)) | +++ (+++ = >2.5 relative activity over WT GLA (SEQ ID NO: 5)) |
| B6 | – | + (+ = 0.5 to 1.5 relative activity over WT GLA (SEQ ID NO: 5)) | – | + (+ = 0.5 to 1.5 relative activity over WT GLA (SEQ ID NO: 5)) | + (+ = 0.5 to 1.5 relative activity over WT GLA (SEQ ID NO: 5)) |
| B7 | – | − (− = <0.5 relative activity to WT GLA (SEQ ID NO: 5)) | – | − (− = <0.5 relative activity to WT GLA (SEQ ID NO: 5)) | + (+ = 0.5 to 1.5 relative activity over WT GLA (SEQ ID NO: 5)) |
| B8 | – | ++ (++ = >1.5 to 2.5 relative activity over WT GLA (SEQ ID NO: 5)) | – | ++ (++ = >1.5 to 2.5 relative activity over WT GLA (SEQ ID NO: 5)) | ++ (++ = >1.5 to 2.5 relative activity over WT GLA (SEQ ID NO: 5)) |
